Literature values, collected in article PMC3654037.
One block for each substance: values may come before it.

Tests used:
[1] = molecular target: nectin-4 (Homo sapiens) (UniProt Q96NY8)
[2] = molecular target: CD58 (Homo sapiens) (UniProt P19256)
[3] = molecular target: nectin-2 (Homo sapiens) (UniProt Q92692)
[4] = molecular target: CD48 (Homo sapiens) (UniProt P09326)
[5] = molecular target: CD86 (Homo sapiens) (UniProt P42081)
[6] = molecular target: nectin-1 (Homo sapiens) (UniProt Q15223)

Sequence of UniProt P42081 (P42081 24-247): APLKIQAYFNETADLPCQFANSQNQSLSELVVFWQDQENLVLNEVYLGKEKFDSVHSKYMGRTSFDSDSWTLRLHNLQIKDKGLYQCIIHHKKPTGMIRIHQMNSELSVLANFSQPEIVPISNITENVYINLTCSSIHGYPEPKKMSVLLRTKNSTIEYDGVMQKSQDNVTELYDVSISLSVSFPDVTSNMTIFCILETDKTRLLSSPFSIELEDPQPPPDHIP
Sequence of UniProt P09326 (P09326 27-220): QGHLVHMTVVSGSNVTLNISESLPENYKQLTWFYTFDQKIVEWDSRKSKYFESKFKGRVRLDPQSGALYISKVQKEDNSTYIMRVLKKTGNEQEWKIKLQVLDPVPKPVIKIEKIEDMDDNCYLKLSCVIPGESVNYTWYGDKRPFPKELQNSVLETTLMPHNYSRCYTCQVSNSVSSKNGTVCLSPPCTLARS
Sequence of UniProt P19256 (P19256 29-215): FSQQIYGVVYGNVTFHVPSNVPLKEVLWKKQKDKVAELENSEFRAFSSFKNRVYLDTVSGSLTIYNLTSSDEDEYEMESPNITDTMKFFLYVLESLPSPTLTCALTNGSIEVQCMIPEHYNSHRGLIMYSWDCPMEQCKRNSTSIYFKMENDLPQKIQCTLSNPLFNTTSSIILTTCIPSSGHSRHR

Substance: CD2 (from UniProt P06729)
Kd [2]: 10 µM

Substance: CD28 (from UniProt P10747)
Kd [5]: 20 µM

Substance: nectin-1 (from UniProt Q15223)
Kd [6]: 17.5 µM

Second part, the substance after the results:

Kd [1]: 153 µM
Substance: nectin-4 (from UniProt Q96NY8)

Kd [3]: 0.4 µM
Substance: nectin-2 (from UniProt Q92692)

Kd [4]: 10 µM
Substance: 2B4 (from UniProt Q9BZW8)
